This is an account of results in article PMC2999918.

Where “and” joins values, the source holds several entries; their conditions need not be identical. Equal values may be shown once.

In experiment [1] the target is S36A mutant human apolipoprotein A-I, recombinant (human). Description: cross-linking.
For experiment [2] the target is unchanged. Description: AUC.
Experiment [3] concerns the target wild-type (WT) human apolipoprotein A-I, recombinant (human) (UniProt P02647). Description: native gel or EMSA.
For experiment [4] the target is unchanged. Description: AUC.

As usually defined, the stoichiometry N is a count of units in the complex or per binding partner. Take “S36A mutant human apolipoprotein A-I, recombinant (natural protein)”: the stoichiometry N turned out to be 2 in experiment [1] and 4 in experiment [2]. Moreover, the Ka in experiment [2] stood at 6.12e+14 M⁻¹.

As for “wild-type (WT) human apolipoprotein A-I, recombinant (from UniProt P02647 19-267) (natural protein)”, the stoichiometry N in experiment [3] was 2 and 4. In addition, the Ka in experiment [4] turned out to be 8.56e+14 M⁻¹.
